Laboratory results: US20160040149A1, “Compositions Having Dicamba Decarboxylase Activity and Methods of Use” (priority 2013, published 2016)

B1: 30 (protein)
chain: MARGKIALEEHVSTPENNRLWDSTGEANRNGSEYMQDVERRLLDRSIQLEEMAQRNIDHVILSLTSPGAQSILDKAKAVSFARDTNDFIVDNYVKPNPDKFSAFATLALQNPEAAAEELERAVKKLGMKGALINGYTNVKDSEHGLYLDDESMLVFWDKVNELNVPVYLHPREPLEGPARGIYTGYESLIGSAWGFAQETAVHAIRLMMSGLFDRYPNLNLVLGHLGEGLVHMLPRTQHRLYRQRFGCGLGKAEKPLMHYLQNNFIVTTSGHFNTHSLNNAIEVMGADRVMFSVDYPYEDIHQACDWFDPLEMDEGLKEKIAWGNASRVFNIK
modifications: Enterobacter aerogenes
B2: 34 (protein)
chain: MAQGKIGLEEHFAIPETLNDSAGFVPGDYWKELSRRLLDIQDDRLRQMDENGMEMMLLSLNAPAVQAVPDRKQACELAVRANDFLAEQVSRRPDRFQALAALPLQDPDFATVELTRCVNELGMRGALVNGFSQIDTPDNVVYYDAPQYASFWAAVEKLDVPFYLHPRNPIASWAQIYDGHPWLLGPTWAFGQETAVHALRLMASGLFDRHPALQIVLGHLGEGLPYSLWRIDNRNAWVKAPKTHPAKKTFRHYFQQNFHLTTSGNFHNQTLIDAILEIGADRILFSTDWPFENIDHAAKWFDSASISEADRTKIGRTNAMKLFKLVA
modifications: Cupriavidus necator
B3: 33 (protein, listed as Rhizobium leguminosarum)
chain: MAQGKIALEEHFAIPETLQDSAGFVPGDYWKELSARLLDIQEKRLRLMDAHGIEKMILSLNAPAVQAIPDRAKALEISRRANDFLAEQCVKNPNRFLGFAALPLQDPDAATQELQRCVTTMGFVGALVNGFSQEGDGTTPLYYDLPQYRSFWAEVEKLNVPFYLHPRNPLPQDSRIYAGHSWLMGPTWAFAQETAVHALRLMGSGLFDEHPALRIIVGHMGEGLPYMMWRIDNRNAWVKVEKSYPAKRPIADYFNENFYITTSGNFRTQSLIDAMLEIGADRILFSADWPFENIDHAANWFDSATISEADRLKIGRTNAVSLFKLDR
B4: 28 (protein, listed as Sphingomonas paucimobilis)
chain: MARLIATEEAVTFQPVVDALRAHSRTDDASLDMILVRDVYGDEPARPAMIGRLSDVTGERLAEMDSNGVDMHLLSLTAPGVQMFDAETGTRLARIANDLMAQTVAANPTRFAGLGTFAPQDPASAAREIERVATQLRLNGLVINSHTNDLYYDDPFFHPVFEAIEASGLALYIHPRAPSKQIDRAFRDYGMNSAIWGYGIETSTNAVRMILSGLFDRFPRLKIVLGHMGEAIPFWLWRLDYMHGNATTFGGAPKLKLKPSEYFRRNFAITTSGVESHAALRYSIEVLGPENVMWAIDYPYQPMAPAVQFIRTAPIPEDVKAMVAGGNAARIFRIT
B5: 31 (protein, listed as Agrobacterium sp.)
chain: MAQGKVALEEHFAIPETLQDSAGFVPGDYWKELQHRLLDIQDTRLKLMDAHGIETMILSLNAPAVQAIPDKTKAIEIARRANDVLAEECAKRPDRFLAFAALPLQDPDAATEELQRCVNDLGFVGALVNGFSQEGDGQTPLYYDLPQYRPFWGEVEKLDVPFYLHPRNPLPQDSRIYDGHPWLLGPTWAFAQETAVHALRLMASGLFDEHPRLNIILGHMGEGLPYMMWRIDHRNAWVKLPPRYPAKRRFMDYFNENFHITTSGNFRTQTLIDAILEIGADRILFSTDWPFENIDHASDWFNATSIAEADRVKIGRTNARRLFKLDGA
B6: 29 (protein, listed as Pseudovibrio sp.)
chain: MAGRRDFLRKSVAAGVGLTAAAQLSAGGAQATVPDTSNIPLITLEEHFTTPELQSKNTSGDKRLFSGGGSRPELLDVGAGRIADMDEAGIDIQVLSTVTPGASKITGAEGVEFTRKFNTWIAEEVIAAYPNRFRAFATLPLSSPEAAADELERSVREYGFVGTMTYGPIDGKFLDHADYAPLLARAEALGVPIYIHPNWPSPTAMQAYYDGLGDDLTSRILSGPGYGWHQEIAVQCLRLIVGGVFDRFPNLQIVVGHMGEGLPFYYWRVGEDLDRIAQKRLQKPVQQYFHDNLWITTSAFFRDELLNLALATMGEDRVMFSVDYPMASAKVGADWLRAADIPLATKEKIGSKNAMKLLGIDKI

Assay: Saturation mutagenesis of SEQ ID NO:109: dicamba decarboxylation activity of point mutants (CO2 released), fold of backbone (Tables 7, 8, Megatable 1)
Details: decarboxylation activity (CO2 released) of point mutant vs unmutated backbone protein; backbone SEQ ID NO: 109

| Molecule | Fold Activity [fold] |
| --- | --- |
| B1 | 2 |
| B2 | 1.6 |
| B3 | 1.6 |
| B4 | 1.2 |
| B5 | 1.7 |
| B6 | 1.5 |
